From patent US20020018783A1

Biological target: endogenous CD28 (human, on Jurkat cells and primary T lymphocytes) (human) (UniProt P10747)
Experiment: cell-based or functional assay

Substance: anti-CD28 Mab 28.2 (antibody)
- % of dead cells, 3G6-CD28 transduced T lymphocytes, OKT3/28.2, day 3 (trypan blue): 10%
- % of dead cells, NTP transduced T lymphocytes, OKT3/28.2, day 6 (trypan blue): 15%
- IL-2 secretion with PMA and ionomycin (ELISA, 24 hours), Jurkat-NTP: 960 pg/mL
- IL-2 secretion with PMA and ionomycin (ELISA, 24 hours), both cell populations: 3 fold
